# According to patent US20140221287A1 (AstraZeneca / MedImmune, published 2014):
# No end group written: not given here.
# T1: human amylin receptor 3 (AMY3) (human, UniProt P30988 25-474; O60896 24-148)
# T1 construct: whole, on cells; the cAMP assay used the whole cells; also called AMY3 receptor; human AMY3 receptor
# T1 sequence (looked up) 1: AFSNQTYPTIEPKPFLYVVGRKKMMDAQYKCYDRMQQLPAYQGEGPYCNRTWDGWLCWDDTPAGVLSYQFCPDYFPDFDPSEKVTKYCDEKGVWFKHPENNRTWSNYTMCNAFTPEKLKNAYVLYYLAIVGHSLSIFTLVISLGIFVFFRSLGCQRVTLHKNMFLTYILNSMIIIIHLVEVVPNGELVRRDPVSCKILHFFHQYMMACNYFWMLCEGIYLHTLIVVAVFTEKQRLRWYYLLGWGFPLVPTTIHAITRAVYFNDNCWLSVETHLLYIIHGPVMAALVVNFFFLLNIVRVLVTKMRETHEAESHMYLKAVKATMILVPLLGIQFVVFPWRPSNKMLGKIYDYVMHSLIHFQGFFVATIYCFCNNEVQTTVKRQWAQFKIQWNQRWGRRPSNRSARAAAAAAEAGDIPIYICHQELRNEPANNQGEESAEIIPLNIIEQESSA
# T1 sequence (looked up) 2: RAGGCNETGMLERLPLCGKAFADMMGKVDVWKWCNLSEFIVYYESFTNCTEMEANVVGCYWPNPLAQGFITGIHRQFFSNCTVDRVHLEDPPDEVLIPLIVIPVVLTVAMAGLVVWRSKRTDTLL
# Columns and labels:
# [1] = target: T1, human amylin receptor 3 (AMY3); assay: displacement of 125I-rat amylin from crude membranes of HEK293 cells expressing human AMY3 (hCalcR + RAMP3)
# Method: The crude membranes were incubated with 20 pM ¹²⁵I. (Perkin Elmer Cat#NEX4480) (2000 Ci/mmol) and increasing concentration of test peptide. […] The Unifilter® plates were washed several times using ice cold PBS using a MicroMate 96 Cell Harvester (Perkin Elmer).
# The potency (IC₅₀) of test peptide was determined by the analysis of a concentration-response curve using non-linear regression analysis fitted to a 4-parameter curve. Binding affinities were calculated using GraphPad Prism® software (GraphPad Software, Inc., San Diego, Calif.).
# [2] = target: T2, amylin receptor in membranes prepared from the nucleus accumbens portion of the brain (rat) (rat); assay: displacement of 125I-rat amylin from rat nucleus accumbens membranes
# T2 construct: whole, on cells; Native tissue membranes
# Method: Plate was incubated for 1 hour at room temperature on a shaker. Plate was dried for 1.5 hours at 50° C., then overnight at room temperature.
# Receptor binding activity can be expressed, for example in Table 3, as an IC₅₀ value, calculated from the raw data using an iterative curve-fitting program using a 4-parameter logistic equation (PRISM®, GraphPAD Software, La Jolla, Calif.), as known in the art.
# [3] = target: T1, human amylin receptor 3 (AMY3); assay: cell-based or functional assay
Binder,IC50 [1] [nM],IC50 [2] [nM],"EC50 (nM), cAMP accumulation (HTRF) [3] [nM]"
"CNTATCATQRLANFLVHSSNNFGPK(mPEG40KD)LPPTNVGSNTY-NH2 (ends and bridges not checked, also called Compound 29) [Cmpd 29, [K^26(mPEG40KD)]-Cmpd 12]",60,39,0.114
"CNTATCATQRLANFLVHSSNNFGPILPK(mPEG40KD)TNVGSNTY-NH2 (ends and bridges not checked, also called Compound 36) [Cmpd 36, [K^29(mPEG40KD)]-Cmpd 18]",47,27,0.159
"CNTATCATQRLANFLVHSSNNFGK(mPEG40KD)ILPPTNVGSNTY-NH2 (ends and bridges not checked, also called Compound 33) [Cmpd 33, [K^25(mPEG40KD)]-Cmpd 15]",48,31,0.126
"CNTATCATQRLANFLVHSSNNFGPIK(mPEG40KD)PPTNVGSNTY-NH2 (ends and bridges not checked, also called Compound 34) [Cmpd 34, [K^27(mPEG40KD)]-Cmpd 16]",87,51,0.296
"CNTATCATQRLANFLVK(mPEG40KD)SSNNFGPILPPTNVGSNTY-NH2 (ends and bridges not checked, also called Compound 40) [Cmpd 40, [K^18(mPEG40KD)]-Cmpd 37]",238,,0.85
"CNTATCATQRLANFLVHSSNNFGPILPPTNVGSK(mPEG40KD)TY-NH2 (ends and bridges not checked, also called Compound 42) [Cmpd 42, [K^35(mPEG40KD)]-Cmpd 39]",143,,0.122
"CNTATCATQRLANFLVHSSNNFGPILK(mPEG40KD)PTNVGSNTY-NH2 (ends and bridges not checked, also called Compound 35) [Cmpd 35, [K^28(mPEG40KD)]-Cmpd 17]",46,53,0.295
"CNTATCATQRLANFLVHSSNNFK(mPEG40KD)PILPPTNVGSNTY-NH2 (ends and bridges not checked, also called Compound 32) [Cmpd 32, [K^24(mPEG40KD)]-Cmpd 14]",111,79,0.598
"CNTATCATQRLANFLVHSSK(mPEG40KD)NFGPILPPTNVGSNTY-NH2 (ends and bridges not checked, also called Compound 28) [Cmpd 28, [K^21(mPEG40KD)]-Cmpd 11]",388,131,2.58
"CNTATCATQRLANFLVHSSNNFGPILPPTNVGK(mPEG40KD)NTY-NH2 (ends and bridges not checked, also called Compound 41) [Cmpd 41, [K^34(mPEG40KD)]-Cmpd 38]",77,,0.034
"CNTATCATQRLANFLVHSSNNFGPILPPTK(mPEG40KD)VGSNTY-NH2 (ends and bridges not checked, also called Compound 30) [Cmpd 30, [K^31(mPEG40KD)]-Cmpd 13]",80,61,0.145
"KCNTATCATQRLANFLVRSSNNLGPVLPPTNVGSNTY-NH2 (ends and bridges not checked, also called Compound 1) [Cmpd 1]",,0.1,
"CNTATCATQRLANFLVHSSNNFGPK(Y‑shaped‑mPEG40KD)LPPTNVGSNTY-NH2 (ends and bridges not checked, also called Compound 31) [Cmpd 31, [K^26(Y-shaped-mPEG40KD)]-Cmpd 12]",1130,132,2.56
